Consider two molecules from patent US20040053383A1, “Crystals of cytochrome P450 2C9, structures thereof and their use” (ASTEX TECHNOLOGY LTD., priority 2001, published 2004).

Data set [1] addresses 2C19 (Homo sapiens, UniProt P33261). To be noted: cited from earlier work.
The test system of data set [2] is P450 2C9. Format: biochemical, human.
Protocol: Activity assays on P450 2C9 were performed in a 96-well plate assay format with a Fluoroscan Ascent FL Instruments (Labsystem), using the 7-methoxy-4-(trifluoromethyl)-coumarin as a fluorescent substrate.
Data set [3] relates to P450 2C9. Nature of the data set: Functionality assay with methoxy-4-(trifluoromethyl)-coumarin as fluorescent substrate (Examples 6 and 8). Format: biochemical, human. To be noted: 140 μM methoxy-4-(trifluoromethyl)-coumarin, 37° C. How it is done:
Activity assays on P450 2C9 were performed in a 96-well plate assay format with a Fluoroscan Ascent FL Instruments (Labsystem), using the methoxy-4-(trifluoromethyl)-coumarin as a fluorescent substrate.
Fifteen pmoles of P450 were reconstituted with 0.1 unit of purified human oxidoreductase, in presence of 140 μM of substrate methoxy-4-(trifluoromethyl)-coumarin, a NADPH regenerating system that includes 0.15 mM NADP^+, 0.38 mM Glucose-6-phosphate and 2.9 unit/ml glucose-6-phosphate dehydrogenase in 170 μl final volume of 25 mM KPi, pH 7.4, 0.38 mM MgCl2 Incubations were performed at 37° C. for several minutes and 7-hydroxy-4-(trifluoromethyl)-coumarin was used as metabolite standard to determinate the metabolic rate. The excitation and emission wavelengths used were respectively 409 and 530 nm.
Fifteen pmoles of P450 were reconstituted with 0.1 unit of purified human oxidoreductase, in presence of 140 μM of substrate methoxy-4-(trifluoromethyl)-coumarin, a NADPH regenerating system that includes 0.15 mM NADP^+, 0.38 mM Glucose-6-phosphate and 2.9 unit/ml glucose-6-phosphate dehydrogenase in 170 μl final volume of 25 mM KPi, pH 7.4, 0.38 mM MgCl2. Incubations were performed at 37° C. for several minutes and 7-hydroxy-4-(trifluoromethyl)-coumarin was used as metabolite standard to determinate the metabolic rate. […]

B1: 2C19: human cytochrome P450 2C19, published data (protein, UniProt P33261 1-490, looked up)
Cytochrome P450 2C19: MDPFVVLVLCLSCLLLLSIWRQSSGRGKLPPGPTPLPVIGNILQIDIKDVSKSLTNLSKIYGPVFTLYFGLERMVVLHGYEVVKEALIDLGEEFSGRGHFPLAERANRGFGIVFSNGKRWKEIRRFSLMTLRNFGMGKRSIEDRVQEEARCLVEELRKTKASPCDPTFILGCAPCNVICSIIFQKRFDYKDQQFLNLMEKLNENIRIVSTPWIQICNNFPTIIDYFPGTHNKLLKNLAFMESDILEKVKEHQESMDINNPRDFIDCFLIKMEKEKQNQQSEFTIENLVITAADLLGAGTETTSTTLRYALLLLLKHPEVTAKVQEEIERVIGRNRSPCMQDRGHMPYTDAVVHEVQRYIDLIPTSLPHAVTCDVKFRNYLIPKGTTILTSLTSVLHDNKEFPNPEMFDPRHFLDEGGNFKKSNYFMPFSAGKRICVGEGLARMELFLFLTFILQNFNLKSLIDPKDLDTTPVVNGFASVPPFYQLCFIPV
For the molecule B1, in data set [1], the 7-MFC is 2.98 min⁻¹.

B2: Clone 1155: 2C9-FGloop with the substitution Lys206Glu (protein)
chain: MAKKTSSKGRPPGPTPLPVIGNILQIGIKDISKSLTNLSKVYGPVFTLYFGLKPIVVLHGYEAVKEALIDLGEEFSGRGIFPLAERANRGFGIVFSNGKKWKEIRRFSLMTLRNFGMGKRSIEDRVQEEARCLVEELRKTKASPCDPTFILGCAPCNVICSIIFHKRFDYKDQQFLNLMEKLNENIEILSSPWIQVYNNFPALLDYFPGTHNKLLKNVAFMKSYILEKVKEHQESMDMNNPQDFIDCFLMKMEKEKHNQPSEFTIESLENTAVDLFGAGTETTSTTLRYALLLLLKHPEVTAKVQEEIERVIGRNRSPCMQDRSHMPYTDAVVHEVQRYIDLLPTSLPHAVTCDIKFRNYLIPKGTTILISLTSVLHDNKEFPNPEMFDPHHFLDEGGNFKKSKYFMPFSAGKRICVGEALAGMELFLFLTSILQNFNLKSLVDPKNLDTTPVVNGFASVPPFYQLCFIPVHHHH
Regarding B2, in data set [2], the 7-MFC came to 0.23 min⁻¹. In addition, in data set [3], the “activity with 2C9 substrate” value is on record as 0.083 pmol/min/pmol P450.
